Assay [1] addresses T1, TAP-tagged HCR1 (yeast, UniProt Q05775 1-265).
T1 construct: eIF3j/HCR1, yeast; chromosomal TAP-tagged allele; also called eIF3j/HCR1; source: chromosomal TAP-tagged allele, yeast strain H553, cells treated with 1% HCHO, in whole cell extract
Briefly: pull-down; TAP-tagged chromosomal alleles; cells treated with 1% HCHO before harvest; WCE (1 mg protein) in buffer B (50 mM Tris-HCl pH 7.6, 150 mM NaCl, 0.05% Tween 20) with or without 0.1 mg/ml RNase A; IgG Sepharose 6 Fast Flow beads, 2 h at 4°C; eluted by boiling in SDS buffer or by TEV protease; untagged wt strain as control; Western analysis. The conditions noted are these: partners not purified.

Assay [2] has as its target T2, Myc-tagged RLI1 (yeast, UniProt Q03195 1-608).
T2 construct: chromosomal Myc-tagged allele; also called ABCE1/RLI1; source: chromosomal Myc-tagged allele, yeast strain YDH353, in whole cell extract
Briefly: co-IP; WCE of yeast YDH353 (chromosomal Myc-tagged RLI1), 500 µg total protein, 1 µl mouse anti-Myc-Tag IgG, with or without antibody; lysis in buffer A (30 mM HEPES pH 8.8, 20 mM KAc, 3 mM magnesium acetate, 1 mM DTT, 1% Nonidet P-40); Western analysis. As to conditions: partners not purified.

T1 sequence (Q05775 whole entry): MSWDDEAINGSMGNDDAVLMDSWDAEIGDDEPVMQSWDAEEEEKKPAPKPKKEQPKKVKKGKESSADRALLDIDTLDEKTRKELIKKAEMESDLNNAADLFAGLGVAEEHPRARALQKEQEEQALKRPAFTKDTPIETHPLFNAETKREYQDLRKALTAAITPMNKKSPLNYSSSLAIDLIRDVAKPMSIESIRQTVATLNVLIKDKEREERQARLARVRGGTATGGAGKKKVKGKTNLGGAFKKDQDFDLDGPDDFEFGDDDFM

B1: eukaryotic release factor 3 (eRF3) (natural protein, yeast (endogenous in yeast cells), UniProt P05453 1-685, looked up)
chain: MSDSNQGNNQQNYQQYSQNGNQQQGNNRYQGYQAYNAQAQPAGGYYQNYQGYSGYQQGGYQQYNPDAGYQQQYNPQGGYQQYNPQGGYQQQFNPQGGRGNYKNFNYNNNLQGYQAGFQPQSQGMSLNDFQKQQKQAAPKPKKTLKLVSSSGIKLANATKKVGTKPAESDKKEEEKSAETKEPTKEPTKVEEPVKKEEKPVQTEEKTEEKSELPKVEDLKISESTHNTNNANVTSADALIKEQEEEVDDEVVNDMFGGKDHVSLIFMGHVDAGKSTMGGNLLYLTGSVDKRTIEKYEREAKDAGRQGWYLSWVMDTNKEERNDGKTIEVGKAYFETEKRRYTILDAPGHKMYVSEMIGGASQADVGVLVISARKGEYETGFERGGQTREHALLAKTQGVNKMVVVVNKMDDPTVNWSKERYDQCVSNVSNFLRAIGYNIKTDVVFMPVSGYSGANLKDHVDPKECPWYTGPTLLEYLDTMNHVDRHINAPFMLPIAAKMKDLGTIVEGKIESGHIKKGQSTLLMPNKTAVEIQNIYNETENEVDMAMCGEQVKLRIKGVEEEDISPGFVLTSPKNPIKSVTKFVAQIAIVELKSIIAAGFSCVMHVHTAIEEVHIVKLLHKLEKGTNRKSKKPPAFAKKGMKVIAVLETEAPVCVETYQDYPQLGRFTLRDQGTTIAIGKIVKIAE
notes: eRF3 (SUP35), yeast; also called SUP35; source: endogenous, yeast whole cell extract
As for B1, in assay [1], the “percent of input co-purified” value worked out at 9 ± 0.2%. Also, the “percent of input co-precipitated” value in assay [2] was ~13 % of the input.

B2: ABCE1/RLI1 (natural protein, yeast (endogenous in yeast cells), UniProt Q03195 1-608, looked up)
chain: MSDKNSRIAIVSADKCKPKKCRQECKRSCPVVKTGKLCIEVTPTSKIAFISEILCIGCGICVKKCPFDAIQIINLPTNLEAHVTHRYSANSFKLHRLPTPRPGQVLGLVGTNGIGKSTALKILAGKQKPNLGRFDDPPEWQEIIKYFRGSELQNYFTKMLEDDIKAIIKPQYVDNIPRAIKGPVQKVGELLKLRMEKSPEDVKRYIKILQLENVLKRDIEKLSGGELQRFAIGMSCVQEADVYMFDEPSSYLDVKQRLNAAQIIRSLLAPTKYVICVEHDLSVLDYLSDFVCIIYGVPSVYGVVTLPASVREGINIFLDGHIPAENLRFRTEALQFRIADATEDLQNDSASRAFSYPSLKKTQGDFVLNVEEGEFSDSEILVMMGENGTGKTTLIKLLAGALKPDEGQDIPKLNVSMKPQKIAPKFPGTVRQLFFKKIRGQFLNPQFQTDVVKPLRIDDIIDQEVQHLSGGELQRVAIVLALGIPADIYLIDEPSAYLDSEQRIICSKVIRRFILHNKKTAFIVEHDFIMATYLADKVIVFEGIPSKNAHARAPESLLTGCNRFLKNLNVTFRRDPNSFRPRINKLDSQMDKEQKSSGNYFFLDNTGI
notes: source: endogenous, yeast whole cell extract
As to B2, in assay [1], the “percent of input co-purified” value was approximately 58%.

B3: eukaryotic release factor 1 (eRF1) (natural protein, yeast (endogenous in yeast cells), UniProt P12385 1-437, looked up)
chain: MDNEVEKNIEIWKVKKLVQSLEKARGNGTSMISLVIPPKGQIPLYQKMLTDEYGTASNIKSRVNRLSVLSAITSTQQKLKLYNTLPKNGLVLYCGDIITEDGKEKKVTFDIEPYKPINTSLYLCDNKFHTEVLSELLQADDKFGFIVMDGQGTLFGSVSGNTRTVLHKFTVDLPKKHGRGGQSALRFARLREEKRHNYVRKVAEVAVQNFITNDKVNVKGLILAGSADFKTDLAKSELFDPRLACKVISIVDVSYGGENGFNQAIELSAEALANVKYVQEKKLLEAYFDEISQDTGKFCYGIDDTLKALDLGAVEKLIVFENLETIRYTFKDAEDNEVIKFAEPEAKDKSFAIDKATGQEMDVVSEEPLIEWLAANYKNFGATLEFITDKSSEGAQFVTGFGGIGAMLRYKVNFEQLVDESEDEYYDEDEGSDYDFI
notes: eRF1 (SUP45), yeast; also called SUP45; source: endogenous, yeast whole cell extract
As to B3, the “percent of input co-purified” value in assay [1] is approximately 2%. In assay [2], the “percent of input co-precipitated” value was ~22 % of the input.

The values above are taken from PMC3836723, “Translation Initiation Factors eIF3 and HCR1 Control Translation Termination and Stop Codon Read-Through in Yeast Cells” (PLoS Genetics, 2013).
